How the values were obtained:
[1] = target: anti-CRP antibody (R&D Systems, Inc., Human C-Reactive protein Antibody, Monoclonal Mouse IgG2B, MAB17071-500); assay: SPR Biacore T200; anti-CRP antibody 100 µg/mL fed over protein A/G held on anti-biotin antibody (Example 12)
[2] = target: anti-CRP antibody (R&D Systems, Inc., Human C-Reactive protein Antibody, Monoclonal Mouse IgG2B, MAB17071-500); assay: SPR Biacore T200; anti-CRP antibody 100 µg/mL fed over protein A/G held on anti-mPEG antibody (Example 9)
[3] = target: anti-biotin antibody (Abcam plc., ab53494, Rabbit polyclonal); assay: SPR Biacore T200; protein A/G 100 µg/mL fed over anti-biotin antibody on the chip (Example 3)
[4] = target: anti-adiponectin antibody (R&D Systems, Inc., Human Adiponectin/Acrp30 Antibody, Monoclonal Mouse IgG2B, MAB10651); assay: SPR Biacore T200; anti-adiponectin antibody 100 µg/mL fed over protein A/G held on the first antibody (Example 1)
[5] = target: anti-CRP antibody (R&D Systems, Inc., Human C-Reactive protein Antibody, Monoclonal Mouse IgG2B, MAB17071-500); assay: SPR Biacore T200; anti-CRP antibody 100 µg/mL fed over protein A/G held on the first antibody (Example 7)
[6] = target: anti-CRP antibody (R&D Systems, Inc., Human C-Reactive protein Antibody, Monoclonal Mouse IgG2B, MAB17071-500); assay: SPR Biacore T200; anti-CRP antibody 100 µg/mL fed over protein A/G held on anti-mPEG antibody (Example 10)
[7] = target: anti-biotin monoclonal antibody (Abcam plc., ab36406, Mouse monoclonal); assay: SPR Biacore T200; protein A/G (six domains) 100 µg/mL fed over anti-biotin monoclonal antibody on the biotin-PEG chip (Example 12)
[8] = target: anti-CRP antibody (R&D Systems, Inc., Human C-Reactive protein Antibody, Monoclonal Mouse IgG2B, MAB17071-500); assay: SPR Biacore T200; anti-CRP antibody 100 µg/mL fed over protein A/G held on anti-biotin antibody (Example 13)
[9] = target: anti-adiponectin antibody (R&D Systems, Inc., Human Adiponectin/Acrp30 Antibody, Monoclonal Mouse IgG2B, MAB10651); assay: SPR Biacore T200; anti-adiponectin antibody 100 µg/mL fed over protein A/G held on the first antibody (Example 2)
[10] = target: anti-CRP antibody (R&D Systems, Inc., Human C-Reactive protein Antibody, Monoclonal Mouse IgG2B, MAB17071-500); assay: SPR Biacore T200; anti-CRP antibody 100 µg/mL fed over protein A/G held on anti-streptavidin antibody (Example 14)
[11] = target: anti-CRP antibody (R&D Systems, Inc., Human C-Reactive protein Antibody, Monoclonal Mouse IgG2B, MAB17071-500); assay: SPR Biacore T200; anti-CRP antibody 100 µg/mL fed over protein A/G held on anti-BSA antibody (Example 16)
[12] = target: anti-biotin antibody (Abcam plc., ab53494, Rabbit polyclonal); assay: SPR Biacore T200; protein A/G 100 µg/mL fed over anti-biotin antibody on the chip (Example 1)
[13] = target: anti-BSA antibody (Bioss Inc., bs-0292R, polyclonal antibody); assay: SPR Biacore T200; protein A/G (six domains) 100 µg/mL fed over anti-BSA antibody on the chip (Example 17)
[14] = target: anti-biotin antibody (Abcam plc., ab53494, Rabbit polyclonal); assay: SPR Biacore T200; protein A/G 100 µg/mL fed over anti-biotin antibody on the chip (Example 4)
[15] = target: anti-biotin monoclonal antibody (Abcam plc., ab36406, Mouse monoclonal); assay: SPR Biacore T200; protein A/G (six domains) 25 µg/mL fed over anti-biotin monoclonal antibody on the chip (Example 7)
[16] = target: anti-adiponectin antibody (R&D Systems, Inc., Human Adiponectin/Acrp30 Antibody, Monoclonal Mouse IgG2B, MAB10651); assay: SPR Biacore T200; anti-adiponectin antibody 100 µg/mL fed over protein A/G held on the first antibody (Example 3)
[17] = target: anti-streptavidin antibody (R&D Systems, Inc., Streptavidin Antibody, Recombinant Monoclonal Rabbit IgG Clone #1220C, MAB9020); assay: SPR Biacore T200; protein A/G (six domains) 100 µg/mL fed over anti-streptavidin antibody on the chip (Example 14)
[18] = target: anti-CRP antibody (R&D Systems, Inc., Human C-Reactive protein Antibody, Monoclonal Mouse IgG2B, MAB17071-500); assay: SPR Biacore T200; anti-CRP antibody 100 µg/mL fed over protein A/G held on anti-BSA antibody (Example 17)
[19] = target: anti-CRP antibody (R&D Systems, Inc., Human C-Reactive protein Antibody, Monoclonal Mouse IgG2B, MAB17071-500); assay: SPR Biacore T200; anti-CRP antibody 100 µg/mL fed over protein A/G held on anti-BSA antibody (Example 15)
[20] = target: anti-mPEG monoclonal antibody (Abcam plc., ab51257, Mouse monoclonal, Anti-Polyethylene glycol antibody [PEG-B-47]); assay: SPR Biacore T200; protein A/G (six domains) 1,000 µg/mL fed over anti-mPEG antibody on the mPEG chip (Example 10)
[21] = target: anti-biotin monoclonal antibody (Abcam plc., ab36406, Mouse monoclonal); assay: SPR Biacore T200; protein A/G (six domains) 100 µg/mL fed over anti-biotin monoclonal antibody on the biotin-PEG chip (Example 13)
[22] = target: anti-adiponectin antibody (R&D Systems, Inc., Human Adiponectin/Acrp30 Antibody, Monoclonal Mouse IgG2B, MAB10651); assay: SPR Biacore T200; anti-adiponectin antibody 100 µg/mL fed over protein A/G held on the first antibody (Example 5)
[23] = target: anti-biotin antibody (Abcam plc., ab53494, Rabbit polyclonal); assay: SPR Biacore T200; protein A/G 100 µg/mL fed over anti-biotin antibody on the chip (Example 2)
[24] = target: anti-BSA antibody (Bioss Inc., bs-0292R, polyclonal antibody); assay: SPR Biacore T200; protein A/G (six domains) 100 µg/mL fed over anti-BSA antibody on the chip (Example 16)
[25] = target: anti-biotin antibody (Abcam plc., ab53494, Rabbit polyclonal); assay: SPR Biacore T200; protein A/G 100 µg/mL fed over anti-biotin antibody on the chip (Example 5)
[26] = target: anti-adiponectin antibody (R&D Systems, Inc., Human Adiponectin/Acrp30 Antibody, Monoclonal Mouse IgG2B, MAB10651); assay: SPR Biacore T200; anti-adiponectin antibody 100 µg/mL fed over protein A/G held on the first antibody (Example 4)
[27] = target: anti-BSA antibody (Bioss Inc., bs-0292R, polyclonal antibody); assay: SPR Biacore T200; protein A/G (six domains) 100 µg/mL fed over anti-BSA antibody on the chip (Example 15)
[28] = target: anti-mPEG monoclonal antibody (Abcam plc., ab51257, Mouse monoclonal, Anti-Polyethylene glycol antibody [PEG-B-47]); assay: SPR Biacore T200; protein A/G (six domains) 101 µg/mL fed over anti-mPEG antibody on the mPEG chip (Example 9)

## protein A/G (Pierce 21186, Recombinant Protein A/G from E. coli, six domains)
[1]
  Amount of second antibody immobilized: 2330 RU
[2]
  Amount of second antibody immobilized: 2840 RU
[3]
  amount of the protein A/G immobilized: 890 RU
[4]
  Amount of second antibody immobilized: 1100 RU
[5]
  Amount of second antibody immobilized: 2300 RU
[6]
  Amount of second antibody immobilized: 3450 RU
[7]
  amount of the protein A/G immobilized: 603 RU
[8]
  Amount of second antibody immobilized: 2890 RU
[9]
  Amount of second antibody immobilized: 935 RU
[10]
  Amount of second antibody immobilized: 3400 RU
[11]
  Amount of second antibody immobilized: 2820 RU
[12]
  amount of the protein A/G immobilized: 558 RU
[13]
  amount of the protein A/G immobilized: 507 RU
[14]
  amount of the protein A/G immobilized: 884 RU
[15]
  amount of the protein A/G immobilized: 622 RU
[16]
  Amount of second antibody immobilized: 1610 RU
[17]
  amount of the protein A/G immobilized: 716 RU
[18]
  Amount of second antibody immobilized: 2680 RU
[19]
  Amount of second antibody immobilized: 2800 RU
[20]
  amount of the protein A/G immobilized: 685 RU
[21]
  amount of the protein A/G immobilized: 828 RU
[22]
  Amount of second antibody immobilized: 1560 RU
[23]
  amount of the protein A/G immobilized: 718 RU
[24]
  amount of protein A/G immobilized: 497 RU
[25]
  amount of the protein A/G immobilized: 890 RU
[26]
  Amount of second antibody immobilized: 1620 RU
[27]
  amount of the protein A/G immobilized: 602 RU
[28]
  amount of the protein A/G immobilized: 637 RU

— patent publication US20190162720A1
